B1: ATL3 (parent)
chain: QELEEEIKELYENFCKHNGSKNVF
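Note: lentivirally expressed fusions sorted by FACS into six bins by GFP to DsRed ratio, PSI derived from sequencing read proportions per bin multiplied by bin number.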

Variants of: B1
Assay: protein stability index of a GFP-peptide fusion (GPS, HEK-293T) (PSI 1-6); higher = more stable
Details: c terminus: a fixed tail appended
For QELEEEIKELPENFCKHNGSKNVF [Y11P], the protein stability index was 5.15.
QELEEEIKELGENFCKHNGSKNVF [Y11G] gave a protein stability index of 4.74.
With QELEEEIKELDENFCKHNGSKNVF [Y11D] the protein stability index was 5.09.
QELEEEIKELWENFCKHNGSKNVF [Y11W] gave a protein stability index of 2.96.
For QELEEEIKELRENFCKHNGSKNVF [Y11R], the protein stability index was 4.39.
For QELEEEIKELKENFCKHNGSKNVF [Y11K], the protein stability index was 4.88.
With QELEEEIKELIENFCKHNGSKNVF [Y11I] the protein stability index was 3.64.
In the case of QELEEEIKELAENFCKHNGSKNVF [Y11A], the protein stability index is reported as 4.25.
QELEEEIKELTENFCKHNGSKNVF [Y11T] showed a protein stability index of 4.3.
For QELEEEIKELCENFCKHNGSKNVF [Y11C], the protein stability index was 4.16.
Work on QELEEEIKELSENFCKHNGSKNVF [Y11S] yielded a protein stability index of 4.61.
Work on QELEEEIKELMENFCKHNGSKNVF [Y11M] yielded a protein stability index of 3.96.
Work on QELEEEIKELVENFCKHNGSKNVF [Y11V] yielded a protein stability index of 3.93.
In the case of QELEEEIKELFENFCKHNGSKNVF [Y11F], the protein stability index is reported as 2.64.
With QELEEEIKELEENFCKHNGSKNVF [Y11E] the protein stability index was 4.54.
Variant QELEEEIKELLENFCKHNGSKNVF [Y11L] has a protein stability index of 3.61.
For QELEEEIKELQENFCKHNGSKNVF [Y11Q], the protein stability index was 4.58.
QELEEEIKELNENFCKHNGSKNVF [Y11N] showed a protein stability index of 4.68.
In the case of QELEEEIKELHENFCKHNGSKNVF [Y11H], the protein stability index is reported as 4.46.
QELEEEWKELYENFCKHNGSKNVF [I7W] gave a protein stability index of 2.26.
In the case of QELEEEEKELYENFCKHNGSKNVF [I7E], the protein stability index is reported as 4.94.
QELEEETKELYENFCKHNGSKNVF [I7T] showed a protein stability index of 4.24.
QELEEEQKELYENFCKHNGSKNVF [I7Q] gave a protein stability index of 4.5.
With QELEEEMKELYENFCKHNGSKNVF [I7M] the protein stability index was 3.8.
QELEEENKELYENFCKHNGSKNVF [I7N] gave a protein stability index of 4.52.
Variant QELEEECKELYENFCKHNGSKNVF [I7C] has a protein stability index of 4.23.
With QELEEEFKELYENFCKHNGSKNVF [I7F] the protein stability index was 3.49.
QELEEEPKELYENFCKHNGSKNVF [I7P] gave a protein stability index of 4.5.
With QELEEEKKELYENFCKHNGSKNVF [I7K] the protein stability index was 4.71.
With QELEEEYKELYENFCKHNGSKNVF [I7Y] the protein stability index was 4.21.
QELEEELKELYENFCKHNGSKNVF [I7L] showed a protein stability index of 3.03.
QELEEESKELYENFCKHNGSKNVF [I7S] showed a protein stability index of 4.09.
In the case of QELEEEHKELYENFCKHNGSKNVF [I7H], the protein stability index is reported as 4.28.
For QELEEEDKELYENFCKHNGSKNVF [I7D], the protein stability index was 4.81.
For QELEEEGKELYENFCKHNGSKNVF [I7G], the protein stability index was 4.73.
With QELEEEAKELYENFCKHNGSKNVF [I7A] the protein stability index was 4.55.
QELEEERKELYENFCKHNGSKNVF [I7R] showed a protein stability index of 4.17.
Work on QELEEEVKELYENFCKHNGSKNVF [I7V] yielded a protein stability index of 3.75.
With QELEEEIKVLYENFCKHNGSKNVF [E9V] the protein stability index was 2.4.
QELEEEIKWLYENFCKHNGSKNVF [E9W] showed a protein stability index of 2.41.
QELEEEIKMLYENFCKHNGSKNVF [E9M] showed a protein stability index of 2.47.
For QELEEEIKILYENFCKHNGSKNVF [E9I], the protein stability index was 1.95.
For QELEEEIKLLYENFCKHNGSKNVF [E9L], the protein stability index was 1.64.
Work on QELEEEIKPLYENFCKHNGSKNVF [E9P] yielded a protein stability index of 3.24.
For QELEEEIKRLYENFCKHNGSKNVF [E9R], the protein stability index was 2.59.
QELEEEIKGLYENFCKHNGSKNVF [E9G] showed a protein stability index of 2.44.
With QELEEEIKKLYENFCKHNGSKNVF [E9K] the protein stability index was 2.38.
QELEEEIKYLYENFCKHNGSKNVF [E9Y] showed a protein stability index of 2.09.
QELEEEIKHLYENFCKHNGSKNVF [E9H] showed a protein stability index of 2.27.
For QELEEEIKNLYENFCKHNGSKNVF [E9N], the protein stability index was 2.77.
QELEEEIKDLYENFCKHNGSKNVF [E9D] showed a protein stability index of 3.39.
Work on QELEEEIKFLYENFCKHNGSKNVF [E9F] yielded a protein stability index of 1.86.
In the case of QELEEEIKTLYENFCKHNGSKNVF [E9T], the protein stability index is reported as 2.59.
Work on QELEEEIKQLYENFCKHNGSKNVF [E9Q] yielded a protein stability index of 2.22.
QELEEEIKCLYENFCKHNGSKNVF [E9C] showed a protein stability index of 2.69.
QELEEEIKALYENFCKHNGSKNVF [E9A] gave a protein stability index of 2.37.
With QELEEEIKSLYENFCKHNGSKNVF [E9S] the protein stability index was 2.39.
QELEESIKELYENFCKHNGSKNVF [E6S] showed a protein stability index of 2.85.
In the case of QELEENIKELYENFCKHNGSKNVF [E6N], the protein stability index is reported as 3.29.
Work on QELEEQIKELYENFCKHNGSKNVF [E6Q] yielded a protein stability index of 3.18.
QELEELIKELYENFCKHNGSKNVF [E6L] gave a protein stability index of 1.75.
Variant QELEEKIKELYENFCKHNGSKNVF [E6K] has a protein stability index of 2.48.
QELEEPIKELYENFCKHNGSKNVF [E6P] gave a protein stability index of 3.28.
Work on QELEEDIKELYENFCKHNGSKNVF [E6D] yielded a protein stability index of 3.59.
QELEEGIKELYENFCKHNGSKNVF [E6G] showed a protein stability index of 3.09.
In the case of QELEERIKELYENFCKHNGSKNVF [E6R], the protein stability index is reported as 2.77.
Work on QELEEWIKELYENFCKHNGSKNVF [E6W] yielded a protein stability index of 1.75.
For QELEEVIKELYENFCKHNGSKNVF [E6V], the protein stability index was 2.08.
Work on QELEEMIKELYENFCKHNGSKNVF [E6M] yielded a protein stability index of 2.19.
QELEEIIKELYENFCKHNGSKNVF [E6I] showed a protein stability index of 1.78.
Work on QELEEYIKELYENFCKHNGSKNVF [E6Y] yielded a protein stability index of 2.37.
In the case of QELEECIKELYENFCKHNGSKNVF [E6C], the protein stability index is reported as 2.32.
QELEEFIKELYENFCKHNGSKNVF [E6F] showed a protein stability index of 1.93.
QELEETIKELYENFCKHNGSKNVF [E6T] gave a protein stability index of 2.86.
For QELEEHIKELYENFCKHNGSKNVF [E6H], the protein stability index was 3.
QELEEEIKEPYENFCKHNGSKNVF [L10P] gave a protein stability index of 4.23.
Work on QELEEEIKEKYENFCKHNGSKNVF [L10K] yielded a protein stability index of 3.92.
Variant QELEEEIKEVYENFCKHNGSKNVF [L10V] has a protein stability index of 4.12.
Variant QELEEEIKEFYENFCKHNGSKNVF [L10F] has a protein stability index of 3.23.
With QELEEEIKEYYENFCKHNGSKNVF [L10Y] the protein stability index was 3.92.
In the case of QELEEEIKECYENFCKHNGSKNVF [L10C], the protein stability index is reported as 4.14.
QELEEEIKERYENFCKHNGSKNVF [L10R] showed a protein stability index of 4.2.
QELEEEIKEWYENFCKHNGSKNVF [L10W] gave a protein stability index of 3.06.
Variant QELEEEIKESYENFCKHNGSKNVF [L10S] has a protein stability index of 4.25.
QELEEEIKEDYENFCKHNGSKNVF [L10D] showed a protein stability index of 4.46.
QELEEEIKENYENFCKHNGSKNVF [L10N] showed a protein stability index of 4.05.
Variant QELEEEIKEGYENFCKHNGSKNVF [L10G] has a protein stability index of 4.41.
In the case of QELEEEIKEHYENFCKHNGSKNVF [L10H], the protein stability index is reported as 4.33.
Work on QELEEEIKEEYENFCKHNGSKNVF [L10E] yielded a protein stability index of 4.5.
QELEEEIKETYENFCKHNGSKNVF [L10T] showed a protein stability index of 4.54.
With QELEEEIKEQYENFCKHNGSKNVF [L10Q] the protein stability index was 3.88.
Variant QELEEEIKEIYENFCKHNGSKNVF [L10I] has a protein stability index of 3.14.
In the case of QELEEEIKEAYENFCKHNGSKNVF [L10A], the protein stability index is reported as 3.48.
For QELEEEIKEMYENFCKHNGSKNVF [L10M], the protein stability index was 3.02.

Reference: the supplement of paper PMC10567573
